The record followed here is publication PMC4333404, “Bcl2 inhibits recruitment of Mre11 complex to DNA double-strand breaks in response to high-linear energy transfer radiation”.

This data set has as its target T1, Mre11 (UniProt P49959 1-708).
T1 sequence: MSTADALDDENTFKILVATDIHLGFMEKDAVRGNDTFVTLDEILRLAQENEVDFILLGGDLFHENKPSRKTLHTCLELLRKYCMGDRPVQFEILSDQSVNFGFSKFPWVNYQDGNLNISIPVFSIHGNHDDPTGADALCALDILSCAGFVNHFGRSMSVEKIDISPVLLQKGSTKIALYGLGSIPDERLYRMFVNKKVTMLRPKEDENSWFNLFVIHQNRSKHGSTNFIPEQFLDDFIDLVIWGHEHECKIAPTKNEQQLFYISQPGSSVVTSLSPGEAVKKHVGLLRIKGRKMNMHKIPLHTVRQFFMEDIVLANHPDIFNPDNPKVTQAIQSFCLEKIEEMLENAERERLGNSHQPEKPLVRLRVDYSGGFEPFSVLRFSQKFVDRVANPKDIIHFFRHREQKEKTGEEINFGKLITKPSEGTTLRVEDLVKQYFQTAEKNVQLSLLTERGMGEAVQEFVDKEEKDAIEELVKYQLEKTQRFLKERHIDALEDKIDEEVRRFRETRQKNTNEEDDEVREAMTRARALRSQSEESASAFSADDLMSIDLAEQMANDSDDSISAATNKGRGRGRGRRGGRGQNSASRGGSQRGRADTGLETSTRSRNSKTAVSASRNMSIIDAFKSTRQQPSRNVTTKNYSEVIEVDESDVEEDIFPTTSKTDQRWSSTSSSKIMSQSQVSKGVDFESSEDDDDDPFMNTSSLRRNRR
Nature of the data set: EMSA; increasing Mre11; 1 mM Mg acetate; no Bcl2; EMSA: 25 mM MOPS pH 7.0, 60 mM KCl, 0.2% Tween, 2 mM DTT, 1 mM Mg(CH3COO)2, 37 C 15 min; 10 pM DNA, 10 nM Mre11; 5% native PAGE in TBE at 4 C. The following applies: protein: recombinant; tags: Flag; chain copies: 2; label: 5'-32P on TP423; 34 bp duplex (S3[1-34] with S4[1-34]); 3' overhangs 16 nt (TP423) and 15 nt (TP424).

B1: TP423/TP424 3' overhanging duplex (dsDNA)
DNA 1: CTGCAGGGTTTTTGTTCCAGTCTGTAGCACTGTGTAAGACAGGCCAGATC
DNA 2: CACAGTGCTACAGACTGGAACAAAAACCCTGCAGTACTCTACTCATCTC
Turning to B1, the binding result is on record as “binds”.
